# Measurements from patent publication US20230287120A1 (ALLOGENE THERAPEUTICS, published 2023).
# T1: Flag tagged recombinant DLL3 (Adipogen) (Homo sapiens (Human), UniProt Q9NYJ7 27-492)
# T1 construct: Bought reagent; also called Flag-DLL3
# T1 sequence: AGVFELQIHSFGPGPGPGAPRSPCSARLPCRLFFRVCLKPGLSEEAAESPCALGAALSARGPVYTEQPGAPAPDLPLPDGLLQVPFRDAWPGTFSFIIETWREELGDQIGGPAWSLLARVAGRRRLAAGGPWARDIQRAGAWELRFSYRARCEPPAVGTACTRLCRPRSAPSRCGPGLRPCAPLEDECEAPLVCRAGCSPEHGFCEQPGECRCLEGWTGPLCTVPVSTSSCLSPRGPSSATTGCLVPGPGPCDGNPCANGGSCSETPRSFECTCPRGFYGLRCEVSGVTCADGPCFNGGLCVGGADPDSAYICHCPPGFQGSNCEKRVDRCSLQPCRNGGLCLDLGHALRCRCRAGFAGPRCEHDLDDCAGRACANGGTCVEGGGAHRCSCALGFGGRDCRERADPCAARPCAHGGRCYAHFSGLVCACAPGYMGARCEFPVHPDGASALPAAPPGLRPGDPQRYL
# B1: 4E6 (other)
# CAR: QVQLQESGPGLVKPSETLSLTCTVSSDSISSYYWSWIRQPPGKGLEWISYIYYSGISNYNPSLKSRVSISVDTSKNQFSLRLSSVTAADTAVYYCARISVAGFFFDNWGQGTLVTVSSGGGGSGGGGSGGGGSGGGGSEIMLTQSPDTLSLSPGERATLSCRASQSVSSSYLAWYQQKPGQAPRLLIYGASSRAAGVPDRFSGSGSGTDFTLTISRLAPEDFVVYYCQQYGISPLTFGGGTKVEIKTTTPAPRPPTPAPTIASQPLSLRPEACRPAAGGAVHTRGLDFACDIYIWAPLAGTCGVLLLSLVITKRGRKKLLYIFKQPFMRPVQTTQEEDGCSCRFPEEEEGGCELRVKFSRSADAPAYQQGQNQLYNELNLGRREEYDVLDKRRGRDPEMGGKPRRKNPQEGLYNELQKDKMAEAYSEIGMKGERRRGKGHDGLYQGLSTATKDTYDALHMQALPPR
# notes: also called anti-DLL3 CAR with 4E6 scFv, on primary T cells
# B2: 3F9-L (other)
# CAR: QVQLQQSGPGLVKPSQTLSLACAISGDSVSSNSAIWNWIRQSPSRGLEWLGGTYYRSMWYNDYAVSVKSRITINPDTSKNQLSLQLNSVTPEDTAVYYCSRGGIVGVPDAFDIWGQGTMVTVSSGGGGSGGGGSGGGGSGGGGSQSVLTQPPSASGTPGQRVTISCSGSSSNIGSNTANWYQQLPGTAPRLLIYRNNQRPSGVPDRFSGSKSGTSASLAISGLQSEDEADYYCAAWDDSLNGYVFGTGTKVTVLTTTPAPRPPTPAPTIASQPLSLRPEACRPAAGGAVHTRGLDFACDIYIWAPLAGTCGVLLLSLVITKRGRKKLLYIFKQPFMRPVQTTQEEDGCSCRFPEEEEGGCELRVKFSRSADAPAYQQGQNQLYNELNLGRREEYDVLDKRRGRDPEMGGKPRRKNPQEGLYNELQKDKMAEAYSEIGMKGERRRGKGHDGLYQGLSTATKDTYDALHMQALPPR
# notes: also called anti-DLL3 CAR with 3F9-L scFv, on primary T cells
# B3: 3E10 (other)
# CAR: QVQLQESGPGLVKPSETLSLTCNVSDGSISSYYWTWIRQPPGKGLDWIGYIFYSGTTNYNPSLKSRVTISLDTSKNQFSLKLTSMTAADTAVYYCARISEKSFYFDYWGQGTLVTVSSGGGGSGGGGSGGGGSGGGGSQSVLTQPPSASGTPGQRVTISCSGSSSNIGSNYVYWYQQLPGTAPKLLIYSNNQRPSGVPDRFSGSKSGTSASLAISGLRSEDEADYYCAPWDDSLSGRVFGGGTKLTVLTTTPAPRPPTPAPTIASQPLSLRPEACRPAAGGAVHTRGLDFACDIYIWAPLAGTCGVLLLSLVITKRGRKKLLYIFKQPFMRPVQTTQEEDGCSCRFPEEEEGGCELRVKFSRSADAPAYQQGQNQLYNELNLGRREEYDVLDKRRGRDPEMGGKPRRKNPQEGLYNELQKDKMAEAYSEIGMKGERRRGKGHDGLYQGLSTATKDTYDALHMQALPPR
# notes: also called anti-DLL3 CAR with 3E10 scFv, on primary T cells
# B4: 3C3 (other)
# CAR: QVQLVQSGAEVKRPGASVKVSCKASGYTFTSYYIHWVRQAPGQGLEWMGVIVPSGGSISYAQKFQGRVTMTRDTSTNIVYMELSSLRSEDTAVYYCARDRYYGDYYYGLDVWGQGTTVTVSSGGGGSGGGGSGGGGSGGGGSDIQMTQSPSSLSASVGDRVTITCRASQGINNFLAWFQQKPGKAPKSLIYAASSLQSGVPSKFSGSGSGTDFTLTIRSLQPEDFATYYCQHYNSYPITFGQGTRLEIKTTTPAPRPPTPAPTIASQPLSLRPEACRPAAGGAVHTRGLDFACDIYIWAPLAGTCGVLLLSLVITKRGRKKLLYIFKQPFMRPVQTTQEEDGCSCRFPEEEEGGCELRVKFSRSADAPAYQQGQNQLYNELNLGRREEYDVLDKRRGRDPEMGGKPRRKNPQEGLYNELQKDKMAEAYSEIGMKGERRRGKGHDGLYQGLSTATKDTYDALHMQALPPR
# notes: also called anti-DLL3 CAR with 3C3 scFv, on primary T cells
# B5: 11F4 (other)
# CAR: QVHLQESGPGLVKPSETLSLTCTVSGGSISHYYWTWIRQPPGKGLEWIGYIYYSGITNFSPSLKSRVSISVDSSKNQFSLNLNSVTAADTAVYYCAGISLAGFYFDYWVQGTLVTVSSGGGGSGGGGSGGGGSGGGGSEIVLTQSPGTLSLSPGERATLSCRASQSVSRSYLAWYQQKPGQAPRLLIYGASSRATGVPDRFSGSGSGTDFTLTISRLEPEDFAVFYCQQYSISPLTFGGGTKVEIKTTTPAPRPPTPAPTIASQPLSLRPEACRPAAGGAVHTRGLDFACDIYIWAPLAGTCGVLLLSLVITKRGRKKLLYIFKQPFMRPVQTTQEEDGCSCRFPEEEEGGCELRVKFSRSADAPAYQQGQNQLYNELNLGRREEYDVLDKRRGRDPEMGGKPRRKNPQEGLYNELQKDKMAEAYSEIGMKGERRRGKGHDGLYQGLSTATKDTYDALHMQALPPR
# notes: also called anti-DLL3 CAR with 11F4 scFv, on primary T cells
# B6: 10E12 (other)
# CAR: QVQLQESGPGLVKPSETLSLTCTVSGVSISSYYWSWIRQPPGKGLEWIAYIYYSGNTNYSPSLKSRVTISVDTSKDQLSLKLSSVTAADTAVYYCTRGGSGTIDVFDIWGQGTMVAVSSGGGGSGGGGSGGGGSGGGGSQSVLTQPPSVSAAPGQKVTISCSGSSSNIGNNYVSWYQQLPGTAPKLLIYDNNKRPSGIPDRFSGSKSGTSATLGITGLQTGDEADYYCETWDSSLSAVVFGGGTKLTVLTTTPAPRPPTPAPTIASQPLSLRPEACRPAAGGAVHTRGLDFACDIYIWAPLAGTCGVLLLSLVITKRGRKKLLYIFKQPFMRPVQTTQEEDGCSCRFPEEEEGGCELRVKFSRSADAPAYQQGQNQLYNELNLGRREEYDVLDKRRGRDPEMGGKPRRKNPQEGLYNELQKDKMAEAYSEIGMKGERRRGKGHDGLYQGLSTATKDTYDALHMQALPPR
# notes: also called anti-DLL3 CAR with 10E12 scFv, on primary T cells
# B7: 2404.8E11 (other)
# CAR: QIQLQQSGPGLVKPSQTLSLTCAISGDSVSSNSAVWNWIRQSPSRGLEWLGRTYYRSKWYNDYAVSVKSRITIKPDTAKNQFSLQLNSVTPEDTAVYYFTRGGIVGAPDAFDIWGQGTMVTVSSGGGGSGGGGSGGGGSGGGGSQSVLTQPPSASGTPGQRVTISCSGSSSNIGSDPINWYQQVPGTAPKLLIYSNNQRPSGVPDRFSGSKSGTSASLAISGLQSEDEADYYCAAWDDSLNGYVFGTGTKVTVLTTTPAPRPPTPAPTIASQPLSLRPEACRPAAGGAVHTRGLDFACDIYIWAPLAGTCGVLLLSLVITKRGRKKLLYIFKQPFMRPVQTTQEEDGCSCRFPEEEEGGCELRVKFSRSADAPAYQQGQNQLYNELNLGRREEYDVLDKRRGRDPEMGGKPRRKNPQEGLYNELQKDKMAEAYSEIGMKGERRRGKGHDGLYQGLSTATKDTYDALHMQALPPR
# notes: also called anti-DLL3 CAR with 2404.8E11 scFv, on primary T cells
# B8: 6F8 (other)
# CAR: QVQLVQSGAEVKKPGSSVKVSCKASGGTFTNYCISWVRQAPGQGLEWMGGIIPIFGTTNYAQTFQGRVTITADKSTSTAYMELSSLRSEDTAVYYCARDNGDRYYYDMDVWGQGTTVTVSSGGGGSGGGGSGGGGSGGGGSQSVLTQPPSVSAAPGQKVTISCSGSSSNIGNNYVSWYQQLPGTAPKLLIYDNNKRPSGIPDRFSGSKSGTSATLGITGLQTGDEADYYCGTWDSSLSAVVFGGGTKLTVLTTTPAPRPPTPAPTIASQPLSLRPEACRPAAGGAVHTRGLDFACDIYIWAPLAGTCGVLLLSLVITKRGRKKLLYIFKQPFMRPVQTTQEEDGCSCRFPEEEEGGCELRVKFSRSADAPAYQQGQNQLYNELNLGRREEYDVLDKRRGRDPEMGGKPRRKNPQEGLYNELQKDKMAEAYSEIGMKGERRRGKGHDGLYQGLSTATKDTYDALHMQALPPR
# notes: also called anti-DLL3 CAR with 6F8 scFv, on primary T cells
# B9: 3G6 - L1 (other)
# CAR: QVPLVQSGAEVKKPGSSVKVSCKASGGTFSTYSISWVRQAPGQGLEWMGGIIPIFGTTNYAQKFQGRVTITADKSTSTAYMELSSLRSEDTAVYYCARDGEGSYYYYYGMDVWGQGTTVTVSSGGGGSGGGGSGGGGSGGGGSQSVLTQPPSVSAAPGQKVTISCSGSSSNIGNNYVSWYQQLPGTAPKLLIYDNNKRPSGIPDRFFGSKFGTSATLGITGLQTGDEADYYCGTWDSSLSAVVFGGGTKLTVLTTTPAPRPPTPAPTIASQPLSLRPEACRPAAGGAVHTRGLDFACDIYIWAPLAGTCGVLLLSLVITKRGRKKLLYIFKQPFMRPVQTTQEEDGCSCRFPEEEEGGCELRVKFSRSADAPAYQQGQNQLYNELNLGRREEYDVLDKRRGRDPEMGGKPRRKNPQEGLYNELQKDKMAEAYSEIGMKGERRRGKGHDGLYQGLSTATKDTYDALHMQALPPR
# notes: also called anti-DLL3 CAR with 3G6-L1 scFv, on primary T cells
# B10: 3G6 - L2 (other)
# CAR: QVPLVQSGAEVKKPGSSVKVSCKASGGTFSTYSISWVRQAPGQGLEWMGGIIPIFGTTNYAQKFQGRVTITADKSTSTAYMELSSLRSEDTAVYYCARDGEGSYYYYYGMDVWGQGTTVTVSSGGGGSGGGGSGGGGSGGGGSQSVLTQPPSASGTPGQRVTISCSGSSSNIGSNYVYWYQQLPGTAPKLLIYSNNQRPSGVPDRFSGSKSGTSASLAISGLRSEDEADYYCAAWDDSLSGWVFGGGTKLTVLTTTPAPRPPTPAPTIASQPLSLRPEACRPAAGGAVHTRGLDFACDIYIWAPLAGTCGVLLLSLVITKRGRKKLLYIFKQPFMRPVQTTQEEDGCSCRFPEEEEGGCELRVKFSRSADAPAYQQGQNQLYNELNLGRREEYDVLDKRRGRDPEMGGKPRRKNPQEGLYNELQKDKMAEAYSEIGMKGERRRGKGHDGLYQGLSTATKDTYDALHMQALPPR
# notes: also called anti-DLL3 CAR with 3G6-L2 scFv, on primary T cells
# B11: 4C6 (other)
# CAR: QVQLQESGPGLVKPSETLSLTCTVSGDSISSYYWSWIRQPPGKGLEWIGYMYYSGITNYNPSLKSRVNISLDTSKNQFSLKLGSVTAADTAVYYCARLSVAGFYFDYWGQGTLVTVSSGGGGSGGGGSGGGGSGGGGSEIVLTQSPGTLSLSPGERATLSCRASQSVTRSYLAWYQQKPGQAPRLLIYGASSRATDIPDRFSGSGSGTDFTLTINRLEPEDFAVYYCQQYGTSPLTFGGGTKVEIKTTTPAPRPPTPAPTIASQPLSLRPEACRPAAGGAVHTRGLDFACDIYIWAPLAGTCGVLLLSLVITKRGRKKLLYIFKQPFMRPVQTTQEEDGCSCRFPEEEEGGCELRVKFSRSADAPAYQQGQNQLYNELNLGRREEYDVLDKRRGRDPEMGGKPRRKNPQEGLYNELQKDKMAEAYSEIGMKGERRRGKGHDGLYQGLSTATKDTYDALHMQALPPR
# notes: also called anti-DLL3 CAR with 4C6 scFv, on primary T cells
# Key:
# [1] = target: T1, Flag tagged recombinant DLL3 (Adipogen); assay: flow cytometry, percent of T cells that recognise recombinant DLL3, Donor 503
# Description: (§1) To determine the percentage of T cells that were successfully transduced with DLL3 CAR, T cells were first incubated with 1 ug/ml Flag tagged recombinant DLL3 (Adipogen) in PBS+1% BSA for 20 minutes at 4 C.
# [2] = target: T1, Flag tagged recombinant DLL3 (Adipogen); assay: flow cytometry, percent of T cells that recognise recombinant DLL3, Donor 772
# Description: as §1
Binder,Transduction efficiency [1] [%],Transduction efficiency [2] [%]
B1,37.8,24.8
B2,19.5,13.8
B3,,0.43
B4,,0.14
B5,,0.43
B6,,0.98
B7,58.9,
B8,59.4,26.7
B9,35,14.2
B10,33.5,16.9
B11,56.9,25.2
